# Results: patent US20260098059A1 (ENDOMET BIOSCIENCES, published 2026)
# “And” between values parts separate entries of the source, which are not always exact repeats. Equal entries are not always repeated. Bridges are numbered along the chain shown (N, C = ends). Where no end group is shown, it is not given here. [ ]: non-standard residue; d: D form. Cha = N[C@@H](CC1CCCCC1)C(=O)O; Chg = N[C@H](C(=O)O)C1CCCCC1; NMeA = CN[C@@H](C)C(=O)O; Abu = CC[C@H](N)C(=O)O
# T1: β-catenin (UniProt P35222 134-665, limits assumed, biotinylated in the SPR and plate assays)
# T1 construct: also called beta catenin; biotinylated β-catenin
# T1 sequence (looked up): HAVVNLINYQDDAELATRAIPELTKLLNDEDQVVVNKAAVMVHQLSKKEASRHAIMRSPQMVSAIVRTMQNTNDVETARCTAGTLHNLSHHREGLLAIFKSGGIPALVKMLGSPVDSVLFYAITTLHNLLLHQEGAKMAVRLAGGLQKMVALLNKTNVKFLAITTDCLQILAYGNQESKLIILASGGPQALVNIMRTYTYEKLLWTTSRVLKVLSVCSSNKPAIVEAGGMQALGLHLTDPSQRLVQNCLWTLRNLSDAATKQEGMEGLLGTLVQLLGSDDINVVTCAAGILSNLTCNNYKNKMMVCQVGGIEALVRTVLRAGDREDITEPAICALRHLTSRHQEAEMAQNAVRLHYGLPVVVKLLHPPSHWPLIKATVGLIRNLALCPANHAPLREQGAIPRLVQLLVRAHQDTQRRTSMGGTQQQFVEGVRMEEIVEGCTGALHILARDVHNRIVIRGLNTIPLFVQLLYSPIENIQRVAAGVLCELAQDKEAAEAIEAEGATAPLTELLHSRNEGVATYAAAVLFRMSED
# Biological target: T1, β-catenin
# Test: competitive FP
# Excerpt: Fluorescence polarization (FP) is another method used to analyze protein-ligand interactions. This methodology measures the change in fluorescence light emitted by a labelled compound free vs. conjugated to another compound in solution. Upon binding of the fluorescent molecule to a complex, polarization increases because of limited rotation of the fluorescent tracer. Competitive FP is often utilized in drug screens as it is formatted for high throughput screens in a plate format. This immunoassay is performed by introducing a non-conjugated drug to compete for binding to the labelled competitor-ligand complex, leading to a reduction in polarization. […] Exemplary methodology is described in Example 13. Data were analyzed and plotted in Microsoft Excel (Microsoft, Redmond, WA).
# Varying concentrations of β-catenin inhibitor candidate (SEQ ID NO: 404) were then added in a series of serial dilutions from 10 nM to 30 uM of inhibitor in different wells of the plate. The fluorescence polarization was read by Infinite M1000 (Tecan, Baldwin Park CA) at excitation wavelength of 470 nm and measured at emission wavelength of 520 nm. […] The experiments were performed three times and data were analyzed and plotted in Microsoft Excel (Microsoft, Redmond, WA).
row,Binder,Kd
1,"WAQKILDEHGXRVWG (HELM PEPTIDE1{[ac].W.[meA].Q.K.I.L.D.E.H.[O=C([C@@H](N[*:1])C1CCCCC1)[*:2]].[Aib].R.V.W.G.[am]}$PEPTIDE1,PEPTIDE1,5:R3-9:R3$$$V2.0; SMILES CC[C@H](C)[C@@H]1NC(=O)[C@@H](NC(=O)[C@H](CCC(N)=O)NC(=O)[C@H](C)N(C)C(=O)[C@H](Cc2c[nH]c3ccccc23)NC(C)=O)CCCCNC(=O)CC[C@@H](C(=O)N[C@@H](Cc2c[nH]cn2)C(=O)N[C@H](C(=O)NC(C)(C)C(=O)N[C@@H](CCCNC(=N)N)C(=O)N[C@H](C(=O)N[C@@H](Cc2c[nH]c3ccccc23)C(=O)NCC(N)=O)C(C)C)C2CCCCC2)NC(=O)[C@H](CC(=O)O)NC(=O)[C@H](CC(C)C)NC1=O) [SEQ ID NO: 414]",≤ 400 nM
2,Ac-W[NMeA]QSILDKH[Chg]QDVW-NH2 (lactam 8-12; not fully specified; printed as Ac-NH-W-NMeA-QSILDK*H-Chg-QD*VW-NH2) [SEQ ID NO: 460],≤ 400 nM
3,WPQSILDKHGQDVW (not fully specified; Ac-NH-WPQSILDK*H-Chg-QD*VW-NH2) [SEQ ID NO: 462],≤ 400 nM
4,"KWFLIXAWD (HELM PEPTIDE1{K.W.F.L.I.[Abu].A.W.D}$PEPTIDE1,PEPTIDE1,1:R3-9:R3$$$V2.0; SMILES CC[C@@H]1NC(=O)[C@H]([C@@H](C)CC)NC(=O)[C@H](CC(C)C)NC(=O)[C@H](Cc2ccccc2)NC(=O)[C@H](Cc2c[nH]c3ccccc23)NC(=O)[C@@H](N)CCCCNC(=O)C[C@@H](C(=O)O)NC(=O)[C@H](Cc2c[nH]c3ccccc23)NC(=O)[C@H](C)NC1=O) [SEQ ID NO: 244]",> 400 nM and ≤ 1000 nM
5,"MWKLIEFWG (HELM PEPTIDE1{M.W.K.L.I.E.F.W.G}$PEPTIDE1,PEPTIDE1,3:R3-6:R3$$$V2.0; SMILES CC[C@H](C)[C@@H]1NC(=O)[C@H](CC(C)C)NC(=O)[C@@H](NC(=O)[C@H](Cc2c[nH]c3ccccc23)NC(=O)[C@@H](N)CCSC)CCCCNC(=O)CC[C@@H](C(=O)N[C@@H](Cc2ccccc2)C(=O)N[C@@H](Cc2c[nH]c3ccccc23)C(=O)NCC(=O)O)NC1=O) [SEQ ID NO: 230]",≤ 400 nM
6,"AWAQKILDEHGQRVWG (HELM PEPTIDE1{[ac].[bAla].W.[meA].Q.K.I.L.D.E.H.[O=C([C@@H](N[*:1])C1CCCCC1)[*:2]].Q.R.V.W.G.[am]}$PEPTIDE1,PEPTIDE1,6:R3-10:R3$$$V2.0; SMILES CC[C@H](C)[C@@H]1NC(=O)[C@@H](NC(=O)[C@H](CCC(N)=O)NC(=O)[C@H](C)N(C)C(=O)[C@H](Cc2c[nH]c3ccccc23)NC(=O)CCNC(C)=O)CCCCNC(=O)CC[C@@H](C(=O)N[C@@H](Cc2c[nH]cn2)C(=O)N[C@H](C(=O)N[C@@H](CCC(N)=O)C(=O)N[C@@H](CCCNC(=N)N)C(=O)N[C@H](C(=O)N[C@@H](Cc2c[nH]c3ccccc23)C(=O)NCC(N)=O)C(C)C)C2CCCCC2)NC(=O)[C@H](CC(=O)O)NC(=O)[C@H](CC(C)C)NC1=O) [SEQ ID NO: 419]",≤ 400 nM
7,"XWFLIXAWD (HELM PEPTIDE1{[O=C(CCCCCN[*:1])[*:2]].W.F.L.I.[Abu].A.W.D}$PEPTIDE1,PEPTIDE1,1:R1-9:R3$$$V2.0; SMILES CC[C@@H]1NC(=O)[C@H]([C@@H](C)CC)NC(=O)[C@H](CC(C)C)NC(=O)[C@H](Cc2ccccc2)NC(=O)[C@H](Cc2c[nH]c3ccccc23)NC(=O)CCCCCNC(=O)C[C@@H](C(=O)O)NC(=O)[C@H](Cc2c[nH]c3ccccc23)NC(=O)[C@H](C)NC1=O) [SEQ ID NO: 246]",≤ 400 nM
8,Ac-LISFWG-OH [SEQ ID NO: 238],> 10000 nM and ≤ 30000 nM
9,H-RKKRRQRRR[Peg2]KW[Cha]LI[Abu]AWD-OH [SEQ ID NO: 282/493],≤ 400 nM
10,"XWFLICAWD (HELM PEPTIDE1{[O=C(CCCCCN[*:1])[*:2]].W.F.L.I.C.A.W.D}$PEPTIDE1,PEPTIDE1,1:R1-9:R3$$$V2.0; SMILES CC[C@H](C)[C@@H]1NC(=O)[C@H](CC(C)C)NC(=O)[C@H](Cc2ccccc2)NC(=O)[C@H](Cc2c[nH]c3ccccc23)NC(=O)CCCCCNC(=O)C[C@@H](C(=O)O)NC(=O)[C@H](Cc2c[nH]c3ccccc23)NC(=O)[C@H](C)NC(=O)[C@H](CS)NC1=O) [SEQ ID NO: 245]",≤ 400 nM
11,"WAXKILDEHGQRVWG (HELM PEPTIDE1{W.[meA].[Aib].K.I.L.D.E.H.[O=C([C@@H](N[*:1])C1CCCCC1)[*:2]].Q.R.V.W.G.[am]}$PEPTIDE1,PEPTIDE1,4:R3-8:R3$$$V2.0; SMILES CC[C@H](C)[C@@H]1NC(=O)[C@@H](NC(=O)C(C)(C)NC(=O)[C@H](C)N(C)C(=O)[C@@H](N)Cc2c[nH]c3ccccc23)CCCCNC(=O)CC[C@@H](C(=O)N[C@@H](Cc2c[nH]cn2)C(=O)N[C@H](C(=O)N[C@@H](CCC(N)=O)C(=O)N[C@@H](CCCNC(=N)N)C(=O)N[C@H](C(=O)N[C@@H](Cc2c[nH]c3ccccc23)C(=O)NCC(N)=O)C(C)C)C2CCCCC2)NC(=O)[C@H](CC(=O)O)NC(=O)[C@H](CC(C)C)NC1=O) [SEQ ID NO: 417]",≤ 400 nM
12,Ac-W[NMeA]QSILDEH[Chg]QKVW-NH2 (lactam 8-12; not fully specified; printed as Ac-NH-W-NMeA-QSILDE*H-Chg-QK*VW-NH2) [SEQ ID NO: 466],≤ 400 nM
13,WPQSILDEHGQKVW (not fully specified; Ac-NH-WPQSILDE*H-Chg-QK*VW-NH2) [SEQ ID NO: 468],≤ 400 nM
14,"DWFLICAWK (HELM PEPTIDE1{D.W.F.L.I.C.A.W.K}$PEPTIDE1,PEPTIDE1,1:R3-9:R3$$$V2.0; SMILES CC[C@H](C)[C@@H]1NC(=O)[C@H](CC(C)C)NC(=O)[C@H](Cc2ccccc2)NC(=O)[C@H](Cc2c[nH]c3ccccc23)NC(=O)[C@@H](N)CC(=O)NCCCC[C@@H](C(=O)O)NC(=O)[C@H](Cc2c[nH]c3ccccc23)NC(=O)[C@H](C)NC(=O)[C@H](CS)NC1=O) [SEQ ID NO: 233]",≤ 400 nM
15,Ac-W[NMeA]QSILDEH[Chg]QKVWG-NH2 (lactam 8-12; not fully specified; printed as Ac-NH-W-NMeA-QSILDE*H-Chg-QK*VWG-NH2) [SEQ ID NO: 470],≤ 400 nM
16,"WAQSILDEHVQKVWG (HELM PEPTIDE1{[ac].W.[meA].Q.S.I.L.D.E.H.V.Q.K.V.W.G.[am]}$PEPTIDE1,PEPTIDE1,9:R3-13:R3$$$V2.0; SMILES CC[C@H](C)[C@H](NC(=O)[C@H](CO)NC(=O)[C@H](CCC(N)=O)NC(=O)[C@H](C)N(C)C(=O)[C@H](Cc1c[nH]c2ccccc12)NC(C)=O)C(=O)N[C@@H](CC(C)C)C(=O)N[C@@H](CC(=O)O)C(=O)N[C@H]1CCC(=O)NCCCC[C@@H](C(=O)N[C@H](C(=O)N[C@@H](Cc2c[nH]c3ccccc23)C(=O)NCC(N)=O)C(C)C)NC(=O)[C@H](CCC(N)=O)NC(=O)[C@H](C(C)C)NC(=O)[C@H](Cc2c[nH]cn2)NC1=O) [SEQ ID NO: 437]",≤ 400 nM
17,"WAQKGLDEHVQRVWG (HELM PEPTIDE1{[ac].W.[meA].Q.K.[O=C([C@@H](N[*:1])C1CCCCC1)[*:2]].L.D.E.H.V.Q.R.V.W.G.[am]}$PEPTIDE1,PEPTIDE1,5:R3-9:R3$$$V2.0; SMILES CC(=O)N[C@@H](Cc1c[nH]c2ccccc12)C(=O)N(C)[C@@H](C)C(=O)N[C@@H](CCC(N)=O)C(=O)N[C@H]1CCCCNC(=O)CC[C@@H](C(=O)N[C@@H](Cc2c[nH]cn2)C(=O)N[C@H](C(=O)N[C@@H](CCC(N)=O)C(=O)N[C@@H](CCCNC(=N)N)C(=O)N[C@H](C(=O)N[C@@H](Cc2c[nH]c3ccccc23)C(=O)NCC(N)=O)C(C)C)C(C)C)NC(=O)[C@H](CC(=O)O)NC(=O)[C@H](CC(C)C)NC(=O)[C@H](C2CCCCC2)NC1=O) [SEQ ID NO: 421]",≤ 400 nM
18,W[NMeA]QK[Chg]LDEHVQRVWG-NH2 (lactam 4-8; not fully specified (N-terminus); printed as H17C8C(O)NH-W-NMeA-QK*-Chg-LDE*HVQRVWG-NH2) [SEQ ID NO: 422],> 400 nM and ≤ 1000 nM
